Measurements from article PMC11672753 (Plant Biotechnology Journal, 2024).

B1: M15-YTE (antibody, V domains shown)
VH: QVQLLESGGGLVQPGGSLRLSCAASGFTFSSYAMSWVRQAPGKGLEWASAISGSGGSTYYADSVEGRFTISRDNSKNTLYLQMNSLRAEDTAVYYCAKDTGYCGDDCYIKLIRGGPDYWGQGTLVTVSS
VL: DIVMTQSPLSLPVTLGQPASISCRSSQSLVYSDGNTFLNWFQQRPGQSPRRLIYQVSNRDSGVPDRFSGSGSGTDFTLKISRVEAEDVGVYYCMQGTHWPRTFGQGTKLEIK
B2: M15-FX (antibody, V domains shown)
VH: QVQLLESGGGLVQPGGSLRLSCAASGFTFSSYAMSWVRQAPGKGLEWASAISGSGGSTYYADSVEGRFTISRDNSKNTLYLQMNSLRAEDTAVYYCAKDTGYCGDDCYIKLIRGGPDYWGQGTLVTVSS
VL: DIVMTQSPLSLPVTLGQPASISCRSSQSLVYSDGNTFLNWFQQRPGQSPRRLIYQVSNRDSGVPDRFSGSGSGTDFTLKISRVEAEDVGVYYCMQGTHWPRTFGQGTKLEIK
B3: M15-HDEL (antibody, V domains shown)
VH: QVQLLESGGGLVQPGGSLRLSCAASGFTFSSYAMSWVRQAPGKGLEWASAISGSGGSTYYADSVEGRFTISRDNSKNTLYLQMNSLRAEDTAVYYCAKDTGYCGDDCYIKLIRGGPDYWGQGTLVTVSS
VL: DIVMTQSPLSLPVTLGQPASISCRSSQSLVYSDGNTFLNWFQQRPGQSPRRLIYQVSNRDSGVPDRFSGSGSGTDFTLKISRVEAEDVGVYYCMQGTHWPRTFGQGTKLEIK
B4: S15 (plant-produced COVA2-15, single-chain (sc)Fv-Fc format) (Fc fusion, human)
VH: QVQLLESGGGLVQPGGSLRLSCAASGFTFSSYAMSWVRQAPGKGLEWASAISGSGGSTYYADSVEGRFTISRDNSKNTLYLQMNSLRAEDTAVYYCAKDTGYCGDDCYIKLIRGGPDYWGQGTLVTVSS
VL: DIVMTQSPLSLPVTLGQPASISCRSSQSLVYSDGNTFLNWFQQRPGQSPRRLIYQVSNRDSGVPDRFSGSGSGTDFTLKISRVEAEDVGVYYCMQGTHWPRTFGQGTKLEIK
B5: S15-YTE (Fc fusion)
VH: QVQLLESGGGLVQPGGSLRLSCAASGFTFSSYAMSWVRQAPGKGLEWASAISGSGGSTYYADSVEGRFTISRDNSKNTLYLQMNSLRAEDTAVYYCAKDTGYCGDDCYIKLIRGGPDYWGQGTLVTVSS
VL: DIVMTQSPLSLPVTLGQPASISCRSSQSLVYSDGNTFLNWFQQRPGQSPRRLIYQVSNRDSGVPDRFSGSGSGTDFTLKISRVEAEDVGVYYCMQGTHWPRTFGQGTKLEIK
B6: S15-FX (Fc fusion)
VH: QVQLLESGGGLVQPGGSLRLSCAASGFTFSSYAMSWVRQAPGKGLEWASAISGSGGSTYYADSVEGRFTISRDNSKNTLYLQMNSLRAEDTAVYYCAKDTGYCGDDCYIKLIRGGPDYWGQGTLVTVSS
VL: DIVMTQSPLSLPVTLGQPASISCRSSQSLVYSDGNTFLNWFQQRPGQSPRRLIYQVSNRDSGVPDRFSGSGSGTDFTLKISRVEAEDVGVYYCMQGTHWPRTFGQGTKLEIK
B7: S15-HDEL (Fc fusion)
VH: QVQLLESGGGLVQPGGSLRLSCAASGFTFSSYAMSWVRQAPGKGLEWASAISGSGGSTYYADSVEGRFTISRDNSKNTLYLQMNSLRAEDTAVYYCAKDTGYCGDDCYIKLIRGGPDYWGQGTLVTVSS
VL: DIVMTQSPLSLPVTLGQPASISCRSSQSLVYSDGNTFLNWFQQRPGQSPRRLIYQVSNRDSGVPDRFSGSGSGTDFTLKISRVEAEDVGVYYCMQGTHWPRTFGQGTKLEIK
B8: M15 (plant-produced COVA2-15, conventional IgG1) (antibody, V domains shown)
VH: QVQLLESGGGLVQPGGSLRLSCAASGFTFSSYAMSWVRQAPGKGLEWASAISGSGGSTYYADSVEGRFTISRDNSKNTLYLQMNSLRAEDTAVYYCAKDTGYCGDDCYIKLIRGGPDYWGQGTLVTVSS
VL: DIVMTQSPLSLPVTLGQPASISCRSSQSLVYSDGNTFLNWFQQRPGQSPRRLIYQVSNRDSGVPDRFSGSGSGTDFTLKISRVEAEDVGVYYCMQGTHWPRTFGQGTKLEIK

Each binder was assayed against T1, SARS-CoV-2 Spike Wuhan (recombinant) (SARS-CoV-2, Wuhan-Hu-1, UniProt P0DTC2) (assay: ELISA; plates coated with 2 μg/mL SARS-CoV-2 Spike Wuhan in PBS; antibodies from 5 nM, 10-fold serial dilutions in PBS/0.5% BSA, 1 h RT; detected with goat anti-human IgG (H + L) peroxidase). Conditions: both partners purified.
T1 construct: also called recombinant SARS-CoV-2 Spike
B1: binds.
B2: binds.
B3: binds.
B4: binds.
B5: binds.
B6: binds.
B7: binds.
B8: binds.
